T1: CXCL10_HUMAN (Homo sapiens, UniProt P02778)
T1 sequence (P02778 22-98): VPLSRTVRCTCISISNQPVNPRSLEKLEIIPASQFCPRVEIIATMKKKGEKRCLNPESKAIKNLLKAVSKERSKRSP

T2: CXCL1_HUMAN (Homo sapiens, UniProt P09341)
T2 sequence (P09341 35-107): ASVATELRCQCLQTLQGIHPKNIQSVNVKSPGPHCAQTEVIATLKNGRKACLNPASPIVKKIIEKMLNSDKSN

B1: P1096_IXORI: novel CXC-binding tick CKBP, Ixodes ricinus (protein, listed as Ixodes ricinus)
chain: HTTVTGSVEGKPNNPNEDIEVSYCRMNCTVENGVSSACSGDCVCVHRDNEPNGICVEITYFGDFGDPSQDPSIDEAAPRESVSKRRSNGES
B2: P1134_IXORI: novel CXC-binding tick CKBP, Ixodes ricinus (protein, listed as Ixodes ricinus)
chain: NEEVFTVEYCGMNCTQKSDGTWTECSGKNKDCRCYHESDAREGLCLSTEYTDFSQFETPSNSDLEAATPRPRKTLYPVRNPHGPKTRGLGYDKRILRDRVKFLI
B3: P1101_IXORI: novel CXC-binding tick CKBP, Ixodes ricinus (protein, listed as Ixodes ricinus)
chain: HTTVAGSDEDIEVSYCGMNCTVESGKSSKCSPDCVCVHEGNERDGICISITYLGDLGNPLEDPSIDLATPLAPVFQSSK
B4: P1095_IXORI: novel CXC-binding tick CKBP, Ixodes ricinus (protein, listed as Ixodes ricinus)
chain: HSPVAGSEVQKLTSDPNDDIDVSYCGMNCTVVNGKSDECSENCKCLHEGDDPKGICVAITYFGDWGDPNDDPKINEATPQTQIFEKKRK
B5: P1162_IXORI: novel CXC-binding tick CKBP, Ixodes ricinus (protein, listed as Ixodes ricinus)
chain: LNDEELFTVDYCGTNCTQQPNGSWTTCPGNCSCYHEDGKTDGFCLSTEYTDFTQFPNLTSEEMDAATPRPE
B6: P1077_IXORI: novel CXC-binding tick CKBP, Ixodes ricinus (protein, listed as Ixodes ricinus)
chain: GSKQLIGPQSSTNSIKAEFCDTNCTAGTNGIWNGCSGDCFCTHVGNSTEGRCMKITGFDEYPTSEAEE
B7: P1104_IXORI: novel CXC-binding tick CKBP, Ixodes ricinus (protein, listed as Ixodes ricinus)
chain: ESKEASASQGPGKSFKVEFCETNCTENNGVWSGCTGDCICVSVGDSKEGRCMDLGDKVIDTPVAQG
B8: P1229_IXORI: novel CXC-binding tick CKBP, Ixodes ricinus (protein, listed as Ixodes ricinus)
chain: DDEFFTVDYCGMNCTLQQDGSWTPCTQKNAECKCYHESGSSVGLCLSTAYTDFNQFGDPNNSDLDAATPRHPDASSR
B9: P1166_IXORI: novel CXC-binding tick CKBP, Ixodes ricinus (protein, listed as Ixodes ricinus)
chain: GPETKEDKKSDVYELFTVEYCGTNCTLLTNGRWTACTGKKGTCRCYHESGEKVGLCLSTEYTDFSEYPNPKSSEIDAAAPLPRETH
B10: P1132_IXORI: novel CXC-binding tick CKBP, Ixodes ricinus (protein, listed as Ixodes ricinus)
chain: LSDEDELFSVEYCGTNCTKQDTGSWTTCSGNCTCYHEDGKKVGLCLSTEYTDFTKFPKPTSEEIANARPLPKREKTLN

molecular target: T1, CXCL10_HUMAN; assay: Yeast surface display (YSD) FACS binding; conditions: FACS re-test; mean percent shift where several clones
Procedure: (§1) Table 1. Tick CKBPs described in PCT/GB2017/050563 and [17]. Tick peptide sequences isolated in yeast surface display fluorescent-activated cell sorting (FACS) screens using a labelled chemokine. Identity with Evasin-1, 4 or 3 was calculated using BLAST. Abbreviations: IXORI—Ixodes ricinus, RHISA—Rhipicephalus sanguineus, AMBMA—Amblyomma maculatum, AMBPA—Amblyomma parvum, AMBTR—Amblyomma triste, AMBAM—Amblyomma americanum, AMBCA—Amblyomma cajennense, RHIPU—Rhipicephalus pulchellus. Table 2A-C. Binding characteristics of tick CKBPs previously disclosed (PCT/GB2017/050563 and [17]). All members of the human chemokine family[164] are listed in column 1. Binding to human chemokines was determined for 14 tick CKBPs using biolayer interferometry (BLI) with calculated Kd shown as Molar (Moles/Litre). Binding data for 17 other novel tick CKBPs was assayed using yeast surface display[17,166],with positive binding results shown as “YES”. For biolayer interferometry, His-tagged purified tick CKBP was bound to a Ni-NINTA sensor on an OctetRed® 384 system, and then binding to each chemokine listed (with the exception of CCL25, CCL26, CXCL16, CXCL17, CXCL4L1, XCL2) was assayed in a cross-binding screen at a chemokine concentration of 300 nM as described. For those chemokines showing binding to a tick CKBP in the cross-binding screen, binding assays were repeated using different doses of chemokine. Association, equilibrium and dissociation data were analysed using Octet software to create corresponding fitted curves, and used to calculate Kd. For yeast surface display, (YSD) background fluorescence was controlled for by using either an empty vector or by omitting the chemokine (i.e. using streptavidin-Alexa647 alone). An arbitrary threshold of >3 fold over background mean fluorescence intensity was chosen to describe confirmed re-tests. Where binding was detected data are indicated as “YES”. […] For yeast surface display data, empty cells represent chemokines that were not tested. Binding data published in relation to previously described tick CKBPs (Evasins-1, 4 and 3) is also shown for comparison in each of FIGS. 2A-C, with the relevant data obtained from publications: [20-22,32]. Table 3: Neutralisation of human chemokines by tick CKBPs previously disclosed (PCT/GB2017/050563 and [17]). Neutralising activity was determined using a quantitative THP1 cell migration assay in a 96-well Boyden chamber with chemokine in the bottom chamber as described. Cells migrating through to the bottom chamber at 4 hours were counted using flow cytometry in a 96 well plate format. IC50 for neutralisation was determined at the chemokine EC80 dose as determined using a range of tick CKBP concentrations. Data was analysed using GraphPad Prism to determine IC50, which is shown as Molar (Moles/Litre). Empty cells represent experiments not done. Table 4—Other previously described tick CKBPs. Tick CKBPs that were also described in PCT/GB2017/050563 and Singh et al. are indicated in “Notes”. Table 5.—Novel tick CKBPs of the invention. Table 6. […] The peptide sequence prefix indicates the identity, and suffix indicate the tick species as follows: AMBCA, Amblyomma cajennense and IXORI, Ixodes ricinus. […] Certain tick peptides e.g. P1074_IXORI were recovered from screens performed with more than one chemokine. Individual yeast clones recovered from the library were re-tested using a FACS (fluorescence activated cell sorting), experiment. The binding of the peptide to the chemokine was assayed by measuring the percent (%), of yeast cells expressing the given peptide that exceeded a background threshold set by measuring the fluorescence of the yeast library pool treated with streptavidin-[…] alone. When more than one independent yeast clone was isolated for a given peptide-chemokine combination, the mean percent shift was calculated and reported in column 3. […]

| Molecule | Chemokines bound in yeast surface display and % cells over threshold fluorescence: CXCL10_HUMAN |
| --- | --- |
| B1 | CXCL10_HUMAN 50% |
| B2 | CXCL10_HUMAN 66% |
| B3 | CXCL10_HUMAN 75% |

molecular target: CXCL12_HUMAN (Homo sapiens, UniProt P48061); assay: Yeast surface display (YSD) FACS binding; conditions: FACS re-test; mean percent shift where several clones
Sequence (P48061 22-93): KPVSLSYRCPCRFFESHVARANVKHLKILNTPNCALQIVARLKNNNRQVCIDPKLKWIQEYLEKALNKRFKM
Procedure: as §1

| Molecule | Chemokines bound in yeast surface display and % cells over threshold fluorescence: CXCL12_HUMAN |
| --- | --- |
| B4 | CXCL12_HUMAN 47% |

molecular target: T2, CXCL1_HUMAN; assay: Yeast surface display (YSD) FACS binding; parameters: label (chemical); conditions: FACS re-test; mean percent shift where several clones
Procedure: as §1

| Molecule | Chemokines bound in yeast surface display and % cells over threshold fluorescence: CXCL1_HUMAN |
| --- | --- |
| B5 | CXCL1_HUMAN 72% |
| B6 | CXCL1_HUMAN 50% |
| B7 | CXCL1_HUMAN 65% |
| B8 | CXCL1_HUMAN 66% |
| B9 | CXCL1_HUMAN 63% |
| B10 | CXCL1_HUMAN 68% |

Source: patent publication US20200247855A1, “THERAPY AND DIAGNOSTICS” (OXFORD UNIVERSITY INNOVATION LIMITED, priority 2017, published 2020)
